Assay results: patent publication US12571058

Molecular target: histidine kinase UzcS (Caulobacter crescentus NA1000)
Assay: cell-based or functional assay

Chain of histidine kinase UzcS (Caulobacter crescentus NA1000) (chain, as listed by the source limits assumed, form in doubt): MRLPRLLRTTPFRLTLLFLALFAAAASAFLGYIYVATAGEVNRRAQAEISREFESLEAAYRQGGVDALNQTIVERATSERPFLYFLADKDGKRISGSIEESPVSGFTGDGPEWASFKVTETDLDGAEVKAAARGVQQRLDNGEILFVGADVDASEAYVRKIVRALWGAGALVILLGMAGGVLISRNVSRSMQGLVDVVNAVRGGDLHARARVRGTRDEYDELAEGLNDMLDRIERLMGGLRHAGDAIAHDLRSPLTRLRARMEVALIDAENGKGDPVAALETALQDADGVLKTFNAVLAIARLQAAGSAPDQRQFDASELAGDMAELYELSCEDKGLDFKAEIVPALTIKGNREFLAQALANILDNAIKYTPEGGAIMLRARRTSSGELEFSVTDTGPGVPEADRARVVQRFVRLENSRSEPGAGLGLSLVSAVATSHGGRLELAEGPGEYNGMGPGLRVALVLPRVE

- fold decrease in U detection limit of UzcRS (reporter fluorescence with and without UzcY, FIG. 12): > 4 fold
Substance: UzcY
